Measured values from PMC10959724 (2024).

B1: wildtype TBK1 (TANK-binding kinase 1), mCitrine-Protein A fusion [not stated] / TRAF family member-associated NF-kB activator (TANK), NanoLuc-tagged [not stated] (parent complex)
chain 1: MQSTSNHLWLLSDILGQGATANVFRGRHKKTGDLFAIKVFNNISFLRPVDVQMREFEVLKKLNHKNIVKLFAIEEETTTRHKVLIMEFCPCGSLYTVLEEPSNAYGLPESEFLIVLRDVVGGMNHLRENGIVHRDIKPGNIMRVIGEDGQSVYKLTDFGAARELEDDEQFVSLYGTEEYLHPDMYERAVLRKDHQKKYGATVDLWSIGVTFYHAATGSLPFRPFEGPRRNKEVMYKIITGKPSGAISGVQKAENGPIDWSGDMPVSCSLSRGLQVLLTPVLANILEADQEKCWGFDQFFAETSDILHRMVIHVFSLQQMTAHKIYIHSYNTATIFHELVYKQTKIISSNQELIYEGRRLVLEPGRLAQHFPKTTEENPIFVVSREPLNTIGLIYEKISLPKVHPRYDLDGDASMAKAITGVVCYACRIASTLLLYQELMRKGIRWLIELIKDDYNETVHKKTEVVITLDFCIRNIEKTVKVYEKLMKINLEAAELGEISDIHTKLLRLSSSQGTIETSLQDIDSRLSPGGSLADAWAHQEGTHPKDRNVEKLQVLLNCMTEIYYQFKKDKAERRLAYNEEQIHKFDKQKLYYHATKAMTHFTDECVKKYEAFLNKSEEWIRKMLHLRKQLLSLTNQCFDIEEEVSKYQEYTNELQETLPQKMFTASSGIKHTMTPIYPSSNTLVEMTLGMKKLKEEMEGVVKELAENNHILERFGSLTMDGGLRNVDCL
chain 2: MDKNIGEQLNKAYEAFRQACMDRDSAVKELQQKTENYEQRIREQQEQLSLQQTIIDKLKSQLLLVNSTQDNNYGCVPLLEDSETRKNNLTLDQPQDKVISGIAREKLPKVRRQEVSSPRKETSARSLGSPLLHERGNIEKTFWDLKEEFHKICMLAKAQKDHLSKLNIPDTATETQCSVPIQCTDKTDKQEALFKPQAKDDINRGAPSITSVTPRGLCRDEEDTSFESLSKFNVKFPPMDNDSTFLHSTPERPGILSPATSEAVCQEKFNMEFRDNPGNFVKTEETLFEIQGIDPIASAIQNLKTTDKTKPSNLVNTCIRTTLDRAACLPPGDHNALYVNSFPLLDPSDAPFPSLDSPGKAIRGPQQPIWKPFPNQDSDSVVLSGTDSELHIPRVCEFCQAVFPPSITSRGDFLRHLNSHFNGET

Variants of: B1
Experiment: LuTHy-BRET; live HEK293 cells; parent: 1; read off a plot

Variant	ratio to parent
chain 1 E696K	~0.99
chain 1 R47H	~1

Variants of: B1
Experiment: LuTHy-BRET donor saturation assay; live HEK293 cells; read at Acceptor:Donor = 4 (highest point of the curve); parent: 0.068; read off a plot

Variant	response
chain 1 E696K	~0.062
